Measurements published in publication PMC3722562.

How the values were obtained:
[1] = target: PSMA on PC3(PSMA+) cells (human?) (UniProt Q04609); experiment: NIR cell uptake (QUSIM); conditions: 10 nM, 15 min, 37 C, trypsin wash, 2'-fluoro pyrimidines, Cell assays mostly in DPBS at 37 C (4 C for surface binding), washes DPBS, 0.5 M NaCl +/- 0.2 N acetic acid or trypsin, Qdot flow after 10% FBS/DPBS block …
[2] = target: PSMA (prostate specific membrane antigen) (human) (UniProt Q04609); experiment: not stated (cited); conditions: 2'-fluoro pyrimidines; Cell assays mostly in DPBS at 37 C (4 C for surface binding), washes DPBS, 0.5 M NaCl +/- 0.2 N acetic acid or trypsin; Qdot flow after 10% FBS/DPBS block …; cited from earlier work
PSMA (prostate specific membrane antigen) (human), sequence (Q04609 whole entry): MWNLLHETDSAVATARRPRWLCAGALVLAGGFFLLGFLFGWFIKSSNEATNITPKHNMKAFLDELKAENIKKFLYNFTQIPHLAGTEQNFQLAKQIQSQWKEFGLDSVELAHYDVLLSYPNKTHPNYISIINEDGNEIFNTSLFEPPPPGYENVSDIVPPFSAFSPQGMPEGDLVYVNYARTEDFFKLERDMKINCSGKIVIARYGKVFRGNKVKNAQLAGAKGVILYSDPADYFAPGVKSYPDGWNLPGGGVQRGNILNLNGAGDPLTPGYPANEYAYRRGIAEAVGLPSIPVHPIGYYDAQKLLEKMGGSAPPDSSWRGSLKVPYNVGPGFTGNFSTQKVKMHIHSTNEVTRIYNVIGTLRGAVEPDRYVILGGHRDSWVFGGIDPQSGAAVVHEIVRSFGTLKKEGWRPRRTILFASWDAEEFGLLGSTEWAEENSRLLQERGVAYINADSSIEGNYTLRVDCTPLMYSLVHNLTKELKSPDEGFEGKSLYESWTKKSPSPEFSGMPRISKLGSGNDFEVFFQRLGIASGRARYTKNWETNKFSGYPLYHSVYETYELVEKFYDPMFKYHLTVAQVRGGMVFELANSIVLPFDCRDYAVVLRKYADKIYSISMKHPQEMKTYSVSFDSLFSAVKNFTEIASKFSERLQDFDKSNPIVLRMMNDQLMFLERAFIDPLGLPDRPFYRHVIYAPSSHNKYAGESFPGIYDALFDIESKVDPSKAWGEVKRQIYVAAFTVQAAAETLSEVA

[3] = target: HER2 (rat) (rat) (UniProt P06494); experiment: not stated (cited); conditions: 2'-fluoro pyrimidines; Cell assays mostly in DPBS at 37 C (4 C for surface binding), washes DPBS, 0.5 M NaCl +/- 0.2 N acetic acid or trypsin; Qdot flow after 10% FBS/DPBS block …; cited from earlier work
HER2 (rat) (rat), sequence (P06494 whole entry, the tested form may be a part): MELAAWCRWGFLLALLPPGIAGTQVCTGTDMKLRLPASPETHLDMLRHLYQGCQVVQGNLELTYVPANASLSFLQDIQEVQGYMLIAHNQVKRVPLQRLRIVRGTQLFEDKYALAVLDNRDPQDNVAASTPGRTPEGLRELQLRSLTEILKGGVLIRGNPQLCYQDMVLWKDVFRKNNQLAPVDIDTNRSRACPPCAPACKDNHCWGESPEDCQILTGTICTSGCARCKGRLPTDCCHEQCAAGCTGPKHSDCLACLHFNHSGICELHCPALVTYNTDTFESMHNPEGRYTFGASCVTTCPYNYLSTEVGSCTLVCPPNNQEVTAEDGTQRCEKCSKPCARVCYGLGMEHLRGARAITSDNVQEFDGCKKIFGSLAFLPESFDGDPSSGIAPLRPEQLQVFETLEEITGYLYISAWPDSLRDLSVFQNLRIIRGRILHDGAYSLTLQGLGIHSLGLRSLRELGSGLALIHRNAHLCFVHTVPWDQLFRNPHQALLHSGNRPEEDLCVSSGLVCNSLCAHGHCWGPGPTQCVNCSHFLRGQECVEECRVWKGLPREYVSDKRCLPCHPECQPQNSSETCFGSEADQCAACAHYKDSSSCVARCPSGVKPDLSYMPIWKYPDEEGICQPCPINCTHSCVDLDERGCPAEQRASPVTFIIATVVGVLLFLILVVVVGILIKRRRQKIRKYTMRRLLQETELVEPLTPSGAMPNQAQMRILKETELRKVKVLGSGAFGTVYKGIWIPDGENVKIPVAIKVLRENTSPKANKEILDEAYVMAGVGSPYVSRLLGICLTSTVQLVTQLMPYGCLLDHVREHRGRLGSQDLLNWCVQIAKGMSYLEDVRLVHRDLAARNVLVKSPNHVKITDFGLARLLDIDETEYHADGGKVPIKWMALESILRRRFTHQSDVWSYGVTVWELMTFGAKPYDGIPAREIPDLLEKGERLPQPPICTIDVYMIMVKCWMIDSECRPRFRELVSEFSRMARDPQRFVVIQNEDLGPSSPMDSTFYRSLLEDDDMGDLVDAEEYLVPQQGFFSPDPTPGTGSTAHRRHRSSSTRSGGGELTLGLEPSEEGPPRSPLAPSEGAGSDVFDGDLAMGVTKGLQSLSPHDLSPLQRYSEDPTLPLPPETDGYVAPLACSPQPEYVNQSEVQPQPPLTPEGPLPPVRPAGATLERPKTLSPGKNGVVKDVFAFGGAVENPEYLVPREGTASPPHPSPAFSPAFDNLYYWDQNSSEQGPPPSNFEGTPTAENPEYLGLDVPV

[4] = target: HER2-GST fusion (human) (UniProt P04626); experiment: not stated (cited); conditions: 2'-fluoro pyrimidines (general statement); Cell assays mostly in DPBS at 37 C (4 C for surface binding), washes DPBS, 0.5 M NaCl +/- 0.2 N acetic acid or trypsin; Qdot flow after 10% FBS/DPBS block …; cited from earlier work
[5] = target: TrkB (mouse) (mouse) (UniProt P15209); experiment: not stated (cited); conditions: 2'-fluoro pyrimidines; Cell assays mostly in DPBS at 37 C (4 C for surface binding), washes DPBS, 0.5 M NaCl +/- 0.2 N acetic acid or trypsin; Qdot flow after 10% FBS/DPBS block …; cited from earlier work
TrkB (mouse) (mouse), sequence (P15209 whole entry): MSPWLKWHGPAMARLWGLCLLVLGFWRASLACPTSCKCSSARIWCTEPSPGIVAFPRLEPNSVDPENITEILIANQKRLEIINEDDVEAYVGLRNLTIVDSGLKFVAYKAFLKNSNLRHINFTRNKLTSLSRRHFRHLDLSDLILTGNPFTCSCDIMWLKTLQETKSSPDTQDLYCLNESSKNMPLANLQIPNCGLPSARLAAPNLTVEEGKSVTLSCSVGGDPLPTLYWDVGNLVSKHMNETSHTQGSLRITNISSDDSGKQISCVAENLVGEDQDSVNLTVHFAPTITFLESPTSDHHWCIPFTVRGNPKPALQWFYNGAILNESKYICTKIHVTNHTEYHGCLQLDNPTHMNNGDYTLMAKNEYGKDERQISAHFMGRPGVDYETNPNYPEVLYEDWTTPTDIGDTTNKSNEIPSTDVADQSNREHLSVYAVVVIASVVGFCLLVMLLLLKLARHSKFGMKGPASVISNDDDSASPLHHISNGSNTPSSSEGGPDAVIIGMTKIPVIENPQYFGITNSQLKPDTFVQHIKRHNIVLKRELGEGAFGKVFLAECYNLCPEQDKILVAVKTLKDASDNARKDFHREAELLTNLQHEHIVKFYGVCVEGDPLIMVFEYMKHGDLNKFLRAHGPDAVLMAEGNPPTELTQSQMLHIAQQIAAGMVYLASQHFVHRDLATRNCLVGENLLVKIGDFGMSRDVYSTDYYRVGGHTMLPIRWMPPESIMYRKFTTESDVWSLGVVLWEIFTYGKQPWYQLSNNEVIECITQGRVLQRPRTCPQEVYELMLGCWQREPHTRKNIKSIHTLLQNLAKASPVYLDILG

PSMA on PC3(PSMA+) cells (human?), sequence (Q04609 whole entry): as the sequence (Q04609 whole entry) above

Sequence: GGGACCGAAAAAGACCUGACUUCUAUACUAAGUCUACGUUCCC [A9g]
- binding signal (% of input internalized) ([1]; <1% in PSMA- cells): 13
- Kd [2]: 5 nM

Sequence: GGGAGGACGAUGCGGUCCUGUCGUCUGUUCGUCCCCAGACGACUCGCCCGA [E1]
- Kd [3]: 60.8 nM

Sequence: GGGACCGAAAAAGACCUGGCUUCUAUACUAAGUCUACGUUCCC [A9g.6]
- binding signal (% of input internalized) [1]: < 0.5

Sequence: AGCCGCGAGGGGAGGGAUAGGGUAGGGCGCGGCU [hHER2-apt]
- Kd [4]: 3.5 nM

Sequence: GGGAGGACGAUGCGGUCGUAUUAUCCGCUGCACGCCAGACGACUCGCCCGA [C4-3]
- Kd [5]: 2 nM
